In patent US20200199241A1 (Chugai, published 2020):

B1: IgG1-F278 (antibody)
heavy: QVQLQESGPGLVKPSETLSLTCAVSGHSISHDHAWSWVRQPPGEGLEWIGFISYSGITNYNPSLQGRVTISRDNSKNTLYLQMNSLRAEDTAVYYCARSLARTTAMDYWGEGTLVTVSSASTKGPSVFPLAPSSKSTSGGTAALGCLVKDYFPEPVTVSWNSGALTSGVHTFPAVLQSSGLYSLSSVVTVPSSSLGTQTYICNVNHKPSNTKVDKKVEPKSCDKTHTCPPCPAPELLGGPSVFLFPPKPKDTLYISRTPEVTCVVVDVSHEDPEVKFNWYVDGVEVHNAKTKPREEQYNSTYRVVSVLQPLHQDWLNGKEYKCKVSNKALPAPIEKTISKAKGQPREPQVYTLPPSRDELTKNQVSLTCLVKGFYPSDIAVEWASNGQPENNYKTTPPVLDSDGSFFLYSKLTVDKSRWQQGNVFSCSVMHEALHYHYTQKSLSLSP
light: not shown
notes: EU numbering; copies: 2 + 2
B2: IgG1-F279 (antibody)
heavy: QVQLQESGPGLVKPSETLSLTCAVSGHSISHDHAWSWVRQPPGEGLEWIGFISYSGITNYNPSLQGRVTISRDNSKNTLYLQMNSLRAEDTAVYYCARSLARTTAMDYWGEGTLVTVSSASTKGPSVFPLAPSSKSTSGGTAALGCLVKDYFPEPVTVSWNSGALTSGVHTFPAVLQSSGLYSLSSVVTVPSSSLGTQTYICNVNHKPSNTKVDKKVEPKSCDKTHTCPPCPAPELLGGPSVFLFPPKPKDTLYISRTPEVTCVVVDVSHEDPEVKFNWYVDGVEVHNAKTKPREEQYNSTYRVVSVLTPLHHDWLNGKEYKCKVSNKALPAPIEKTISKAKGQPREPQVYTLPPSRDELTKNQVSLTCLVKGFYPSDIAVEWASNGQPENNYKTTPPVLDSDGSFFLYSKLTVDKSRWQQGNVFSCSVMHEALHYHYTQKSLSLSP
light: not shown
notes: EU numbering; copies: 2 + 2
B3: IgG1-F280 (antibody)
heavy: QVQLQESGPGLVKPSETLSLTCAVSGHSISHDHAWSWVRQPPGEGLEWIGFISYSGITNYNPSLQGRVTISRDNSKNTLYLQMNSLRAEDTAVYYCARSLARTTAMDYWGEGTLVTVSSASTKGPSVFPLAPSSKSTSGGTAALGCLVKDYFPEPVTVSWNSGALTSGVHTFPAVLQSSGLYSLSSVVTVPSSSLGTQTYICNVNHKPSNTKVDKKVEPKSCDKTHTCPPCPAPELLGGPKVFLFPPKPKDTLYISRTPEVTCVVVDVSHEFPEVKFNWYVDGVEVHNAKTKPREEQYNSTYRVVSVLTPLHQDWLNGKEYKCKVSNKALPAPIEKTISKAKGQPREPQVYTLPPSRDELTKNQVSLTCLVKGFYPSDIAVEWESNGQPENNYKTTPPVLDSDGSFFLYSKLTVDKSRWQQGNVFSCSVMHEALHYHYTQKSLSLSP
light: not shown
notes: EU numbering; copies: 2 + 2
B4: IgG1-F282 (antibody)
heavy: QVQLQESGPGLVKPSETLSLTCAVSGHSISHDHAWSWVRQPPGEGLEWIGFISYSGITNYNPSLQGRVTISRDNSKNTLYLQMNSLRAEDTAVYYCARSLARTTAMDYWGEGTLVTVSSASTKGPSVFPLAPSSKSTSGGTAALGCLVKDYFPEPVTVSWNSGALTSGVHTFPAVLQSSGLYSLSSVVTVPSSSLGTQTYICNVNHKPSNTKVDKKVEPKSCDKTHTCPPCPAPELLGGPSVFLFPPKPKDTLYISRTPEVTCVVVDVSHEDPEVKFNWYVDGVEVHNAKTKPREEQYNSTYRVVSVLTPLHQDWLNGKEYKCKVSNKALPAPIEKTISKAKGQPREPQVYTLPPSRDELTKNQVSLTCLVKGFYPSDIAVEWASNGQPENNYKTTPPVLDSDGSFFLYSKLTVDKSRWQQGNVFSCSVLHEALHYHYTQKSLSLSP
light: not shown
notes: EU numbering; copies: 2 + 2
B5: IgG1-F283 (antibody)
heavy: QVQLQESGPGLVKPSETLSLTCAVSGHSISHDHAWSWVRQPPGEGLEWIGFISYSGITNYNPSLQGRVTISRDNSKNTLYLQMNSLRAEDTAVYYCARSLARTTAMDYWGEGTLVTVSSASTKGPSVFPLAPSSKSTSGGTAALGCLVKDYFPEPVTVSWNSGALTSGVHTFPAVLQSSGLYSLSSVVTVPSSSLGTQTYICNVNHKPSNTKVDKKVEPKSCDKTHTCPPCPAPELLGGPSVFLFPPKPKDTLYISRTPEVTCVVVDVSHEDPEVKFNWYVDGVEVHNAKTKPREEQYNSTYRVVSVLTPLHQDWLNGKEYKCKVSNKALPAPIEKTISKAKGQPREPQVYTLPPSRDELTKNQVSLTCLVKGFYPSDIAVEWASNGQPENNYKTTPPVLDSDGSFFLYSKLTVDKSRWQQGNVFSCSVYHEALHYHYTQKSLSLSP
light: not shown
notes: EU numbering; copies: 2 + 2

Target: T1, human FcRn (soluble human FcRn complexed with β2-microglobulin) (human, UniProt P61769 21-119, limits assumed)
T1 construct: also called hFcRn
T1 sequence (chain, as listed by the source limits assumed, chain 1 of 2): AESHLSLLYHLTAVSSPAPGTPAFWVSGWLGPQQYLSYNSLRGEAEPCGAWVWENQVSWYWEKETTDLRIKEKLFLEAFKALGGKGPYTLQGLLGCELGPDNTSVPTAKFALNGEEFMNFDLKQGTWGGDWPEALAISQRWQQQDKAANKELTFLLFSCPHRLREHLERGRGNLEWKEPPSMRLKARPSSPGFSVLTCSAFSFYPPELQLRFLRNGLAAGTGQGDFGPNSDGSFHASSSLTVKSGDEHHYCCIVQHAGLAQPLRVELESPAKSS
T1 sequence (P61769 21-119 limits assumed, chain 2 of 2): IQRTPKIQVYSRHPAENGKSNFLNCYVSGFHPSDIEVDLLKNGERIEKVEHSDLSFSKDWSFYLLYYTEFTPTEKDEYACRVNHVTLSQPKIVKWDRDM
Assay: SPR, pH 7.0;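 note: antibodies captured on a Protein L sensor chip with human FcRn injected as analyte, KD calculated from fitted association and dissociation rate constants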

Binder	Kd [nM]
B1	30
B2	61
B3	41
B4	29
B5	100
